This passage reports ratio to parent results from publication PMC7090148 (2020).

First the molecules themselves.
B1: Mouse OFD1, wild type [mouse] / NTAP-tagged TRAPPC12 [mouse] (parent complex)
chain 1: MAQSNMPHKSDVLSQDELRKKLYQTFKDRGVLDTLQTQLRNQLIHELMHPVLSGEVKPPSISVEGSALLIGASNSLVADHLQRCGYEYSLSVFFPESGLAKEKIFTMQDLLQLIRINPSSSLYKSLISGFDKENKKGFLMSFLKELAEYYQAKESCDAETQTSTTFPSQVSLAEKFQLIDAQFADGFPHRSKLESLETKLNEYKKEVQHQLQVEMCHKLKYFREAEITKVKMEERRKYEKELAEFQNEFERTCQAKNEALISQEKNSLERIKKHREMESKEIYAQRQLLLNDIALLRGREAELKERIETFELTQKLQEEKIKSEAEALERREQNLKNIEDTYDQKLKTELLKYQLELKDDYITRTNKLLEEERKNKEKTIHLQEELTVINSKKEELSKSVKHMKEVELELESVKAQFLAISKQNHLLNEKVREMSDYSQLKEEKVELQAQNKLLKLQLEETRNENLRLLDRITQPPPELVIFQKELQKTEKAMELEHKDFETHRQALEKQLQSEIENSAQLRTQIAEYDASVKRLTVQVAELKSQLKQTQIALENEVYRNPKHSLIHSLSGLLLSGKMAPHSEDKSGDFLNVPLEQNKVIAGAVMSRVPPYVNTATEASSPESDFEFIASSTKAKVRELEQEAERLEKAFRTYYQRATQNPSTSPQPAKSPPSVNSVAALRSIASSSMDRPVSAEDRVVSEQPLGDMLKEEMSDMSKAFMGSVVSRPRRTSSSTRLSSTPHPKSRRSLDNEMYLEGLGRLHMTSSSPLLDRVSASPAASPSPCPERTAQASPVPSRHSFSGLPEQNACLYQRQTETQDKSELSNVDKQSLKDEKFEPPFRWNKTEQFEAEGLHPAGDMPGIDFAVATQSSRLISYDYPSAVQSQTGEQDEQELWELHMKERRQREEQRHNERQEALERERRELGKLEQERRMIEESLKMEMEEELEKSVQDQKDKSAHCENTLEKYMKIIQQRQEESNADKSSKKSGKECSLVDMMMPSDKDESSPGFSHEEPDDMW
chain 2: METAKDGEQSPSEASPSAQAGPENIPEPMSREEESQPLYHEETIDLGGDEFASEENEPTSEGSHNFGDKLNEHMMESVLISDSPNNSEGDVGDLGCLQDVGEPPRGATDHRLPSSTDKEVVDTLSNGSETDGDDTPRDISDMTPDSRASLKEDSTQEDVTSMPALENAATEEVGPKDSLAPREEQTSEVSSNQSSSKDEPLPVCTIFSQATATPSQPHLFLQDGFESQMVKSPSFSSTSETSAKTPPPMVQPSPSLSTFFGDTMSSNSLASDFFDSFTTSTFISVSNPNAGSPVPEKLSSLTAPVGEKSPDSTSPSYSTRMDRSESGVSRAPLDVPESPKPFSQIQAVFAGSDDPFATALSMSEMDRRNDAWLPSQATREVLMSVATQQYGTVFIDKENLTMPGLKFDNIQGDAVKDLMLRFLGEKAAAKRQVLNASSVEQSFVGLKQLISCRNWRAAVDLCGRLLTAHGQGYGKNGLPTSHTTDSLQLWFVRLALLVKLGLFQNAEMEFEPFGNLDQPDLYYEYYPHVYPGRRGSMVPFSMRILHAELQQYLGNPQESLDRLHRVKTVCSKILANLEQGLAEDGGLSSVTQESRQASVQLWRSRLGRVLYSMANCLLLMKDYVLAVDAYLTVIKYYPEQEPQLLSGIGRILLQIGDIKTAEKYFQDVEKVTQKLDGLQGKIMVLMNRAFLYLGQNNFAEAHKFFTEILRMDPTNAVANNNAAVCLLYLGKLKDSLRQLEAMVQQDPRHYLHESVLFNLTTMYELESSRSMQKKQSLLEAVASKEGDSFNTQCLKLA

The variants in the assay derive from B1. As to the kind of experiment: co-IP (IP: anti-Myc, immunoblot); IP: anti-Myc; 0.5% input; parent: 1. (A western blot detects proteins with antibodies after separation by electrophoresis.)
Regarding chain 1 S435R, the ratio to parent worked out at 0.98.
For chain 1 A78T, the ratio to parent is 0.97.
Turning to chain 1 S73F, the ratio to parent was found to be 0.39.
Under chain 1 G137S stands 0.91.
